Experimental data from US20140348840A1 (Memorial Sloan Kettering, published 2014).
Values belong to the binder of their own block, whether it stands above or below them.

Experiments:
p300 [1] = molecular target: T1, p300 (UniProt Q09472 2-2414, limits assumed); assay: anti-Flag co-IP from 293T cells, Western blot for p300
T1 construct: The shRNAs used in Kasumi-1 cells are against human p300
Protocol: (§1) After 36 hours the cells were lysed in RIPA buffer with 1 mM DTT and DNAse I 1 μg/mL and a proteinase inhibitor cocktail (Roche), and incubated on ice for 30 minutes. Nuclear extracts were prepared to examine the endogenous protein-protein interactions. Anti-Flag agarose (Sigma), anti-HA agarose (Pierce) or protein A/G agarose (Santa Cruz) was used in the immunoprecipitation assays. For western blot assays, protein samples were separated by electrophoresis on denaturing 3-8% or 4-12% premade polyacrylamide gels (Invitrogen) and blotted to PVDF membranes (Millipore).

p300 [2] = molecular target: T1, p300; assay: anti-HA co-IP, Western blot for p300
Protocol: as §1

p300 [3] = molecular target: T1, p300; assay: in vitro binding assay with purified proteins

T1 sequence (Q09472 2-2414 limits assumed): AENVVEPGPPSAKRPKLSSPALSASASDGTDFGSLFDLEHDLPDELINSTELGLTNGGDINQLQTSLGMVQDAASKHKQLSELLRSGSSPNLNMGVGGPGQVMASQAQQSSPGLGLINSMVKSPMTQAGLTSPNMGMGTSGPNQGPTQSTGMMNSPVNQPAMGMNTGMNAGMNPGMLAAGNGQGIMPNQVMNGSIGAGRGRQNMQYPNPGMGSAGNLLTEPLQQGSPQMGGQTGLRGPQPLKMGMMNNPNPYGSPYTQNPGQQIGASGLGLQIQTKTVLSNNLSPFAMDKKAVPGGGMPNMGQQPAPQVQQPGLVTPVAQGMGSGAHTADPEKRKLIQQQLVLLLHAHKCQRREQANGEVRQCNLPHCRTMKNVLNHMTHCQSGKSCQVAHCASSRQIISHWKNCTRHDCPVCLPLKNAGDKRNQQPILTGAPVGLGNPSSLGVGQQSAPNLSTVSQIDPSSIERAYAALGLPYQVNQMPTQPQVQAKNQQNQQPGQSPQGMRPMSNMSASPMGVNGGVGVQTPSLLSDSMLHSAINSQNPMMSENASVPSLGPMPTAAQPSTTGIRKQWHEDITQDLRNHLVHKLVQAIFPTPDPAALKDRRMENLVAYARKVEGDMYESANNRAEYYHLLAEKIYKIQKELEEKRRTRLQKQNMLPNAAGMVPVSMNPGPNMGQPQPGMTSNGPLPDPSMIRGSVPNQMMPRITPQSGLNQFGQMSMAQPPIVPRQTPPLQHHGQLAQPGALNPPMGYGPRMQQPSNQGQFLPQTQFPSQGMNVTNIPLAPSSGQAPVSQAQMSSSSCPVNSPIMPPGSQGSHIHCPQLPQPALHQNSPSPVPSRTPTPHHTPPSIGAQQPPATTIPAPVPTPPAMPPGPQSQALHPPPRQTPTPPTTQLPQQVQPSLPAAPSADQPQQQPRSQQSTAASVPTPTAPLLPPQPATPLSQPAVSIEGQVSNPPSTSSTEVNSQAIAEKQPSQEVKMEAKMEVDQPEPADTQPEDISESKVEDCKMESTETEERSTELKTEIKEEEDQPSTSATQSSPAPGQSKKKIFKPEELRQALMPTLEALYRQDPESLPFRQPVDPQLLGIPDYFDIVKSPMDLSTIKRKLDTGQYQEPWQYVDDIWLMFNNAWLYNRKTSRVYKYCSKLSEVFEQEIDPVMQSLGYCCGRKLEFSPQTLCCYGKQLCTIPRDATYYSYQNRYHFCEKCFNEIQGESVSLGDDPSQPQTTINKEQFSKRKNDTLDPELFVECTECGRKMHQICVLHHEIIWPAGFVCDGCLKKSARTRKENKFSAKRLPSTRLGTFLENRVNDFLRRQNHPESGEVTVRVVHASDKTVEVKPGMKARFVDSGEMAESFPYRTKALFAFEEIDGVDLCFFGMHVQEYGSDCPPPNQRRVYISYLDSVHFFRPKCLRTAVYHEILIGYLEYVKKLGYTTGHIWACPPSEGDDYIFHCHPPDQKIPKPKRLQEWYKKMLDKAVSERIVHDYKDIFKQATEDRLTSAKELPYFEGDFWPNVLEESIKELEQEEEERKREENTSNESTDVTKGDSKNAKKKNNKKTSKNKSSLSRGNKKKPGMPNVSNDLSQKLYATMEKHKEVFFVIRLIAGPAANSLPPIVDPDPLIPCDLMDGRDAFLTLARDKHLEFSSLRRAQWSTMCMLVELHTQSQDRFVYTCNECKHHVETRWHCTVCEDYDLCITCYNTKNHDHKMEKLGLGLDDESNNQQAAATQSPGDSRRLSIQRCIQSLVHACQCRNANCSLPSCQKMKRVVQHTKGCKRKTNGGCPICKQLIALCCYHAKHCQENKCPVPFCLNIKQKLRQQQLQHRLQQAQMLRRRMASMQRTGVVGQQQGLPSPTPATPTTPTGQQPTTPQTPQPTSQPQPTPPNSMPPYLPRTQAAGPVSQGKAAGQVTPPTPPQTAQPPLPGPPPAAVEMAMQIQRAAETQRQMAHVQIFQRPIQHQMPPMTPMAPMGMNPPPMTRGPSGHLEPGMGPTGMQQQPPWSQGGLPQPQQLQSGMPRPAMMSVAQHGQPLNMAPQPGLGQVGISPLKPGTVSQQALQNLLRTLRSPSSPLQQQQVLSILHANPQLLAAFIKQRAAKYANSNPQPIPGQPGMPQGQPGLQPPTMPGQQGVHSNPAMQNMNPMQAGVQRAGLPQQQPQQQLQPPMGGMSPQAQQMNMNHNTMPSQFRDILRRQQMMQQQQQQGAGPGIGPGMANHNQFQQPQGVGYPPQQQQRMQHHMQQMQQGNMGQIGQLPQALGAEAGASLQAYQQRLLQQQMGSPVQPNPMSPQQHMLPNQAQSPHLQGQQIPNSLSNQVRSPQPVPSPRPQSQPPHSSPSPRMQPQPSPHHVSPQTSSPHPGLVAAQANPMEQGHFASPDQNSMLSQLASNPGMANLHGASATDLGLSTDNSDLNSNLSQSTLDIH

B3: HA-AML1-ETO9a (other)
chain: MRIPVDASTSRRFTPPSTALSPGKMSEALPLGAPDAGAALAGKLRSGDRSMVEVLADHPGELVRTDSPNFLCSVLPTHWRCNKTLPIAFKVVALGDVPDGTLVTVMAGNDENYSAELRNATAAMKNQVARFNDLRFVGRSGRGKSFTLTITVFTNPPQVATYHRAIKITVDGPREPRNRTEKHSTMPDSPVDVKTQSRLTPPTMPPPPTTQGAPRTSSFTPTTLTNGTSHSPTALNGAPSPPNGFSNGPSSSSSSSLANQQLPPACGARQLSKLKRFLTTLQQFGNDISPEIGERVRTLVLGLVNSTLTIEEFHSKLQEATNFPLRPFVIPFLKANLPLLQRELLHCARLAKQNPAQYLAQHEQLLLDASTTSPVDSSELLLDVNENGKRRTPDRTKENGFDREPLHSEHPSKRPCTISPGQRYSPNNGLSYQPNGLPHPTPPPPQHYRLDDMAIAHHYRDSYRHPSHRDLRDRNRPMGLHGTRQEEMIDHRLTDREWAEEWKHLDHLLNCIMDMVEKTRRSLTVLRRCQEADREELNYWIRRYSDAEDLKKGGGSSSSHSRQQSPVNPDPVALD
notes: Alternatively spliced form of A-E with 575 amino acids, lacking NHR3 and NHR4; also called A-E9a; AE9a; not shown: HA tag (anti-HA antibody used for the IP)
binding result (p300 [2]): binds

B4: Flag-AE-ΔNHR2 (other)
chain: MRIPVDASTSRRFTPPSTALSPGKMSEALPLGAPDAGAALAGKLRSGDRSMVEVLADHPGELVRTDSPNFLCSVLPTHWRCNKTLPIAFKVVALGDVPDGTLVTVMAGNDENYSAELRNATAAMKNQVARFNDLRFVGRSGRGKSFTLTITVFTNPPQVATYHRAIKITVDGPREPRNRTEKHSTMPDSPVDVKTQSRLTPPTMPPPPTTQGAPRTSSFTPTTLTNGTSHSPTALNGAPSPPNGFSNGPSSSSSSSLANQQLPPACGARQLSKLKRFLTTLQQFGNDISPEIGERVRTLVLGLVNSTLTIEEFHSKLQEATNFPLRPFVIPFLKANLPLLQRELLHCARLAKQNPAQYLAQHEQLLLDASTTSPVDSSELLLDVNENGKRRTPDRTKENGFDREPLHSEHPSKRPCTISPGQRYSPNNGLSYQPNGLPHPTPPPPQHYRLDDMAIAHHYRDSYRHPSHRDLRDRNRPMGLEDLKKGGGSSSSHSRQQSPVNPDPVALDAHREFLHRPASGYVPEEIWKKAEEAVNEVKRQAMTELQKAVSEAERKAHDMITTERAKMERTVAEAKRQAAEDALAVINQQEDSSESCWNCGRKASETCSGCNTARYCGSFCQHKDWEKHHHICGQTLQAQQQGDTPAVSSSVTPNSGAGSPMDTPPAATPRSTTPGTPSTIETTPR
notes: AML1-ETO lacking amino acids 481 to 547 (the NHR2 domain); also called AML1-ETO ΔNHR2; not shown: Flag tag at the N-terminus
binding result (p300 [1]): binds

B5: AML1-ETO fusion protein (other)
chain: MRIPVDASTSRRFTPPSTALSPGKMSEALPLGAPDAGAALAGKLRSGDRSMVEVLADHPGELVRTDSPNFLCSVLPTHWRCNKTLPIAFKVVALGDVPDGTLVTVMAGNDENYSAELRNATAAMKNQVARFNDLRFVGRSGRGKSFTLTITVFTNPPQVATYHRAIKITVDGPREPRNRTEKHSTMPDSPVDVKTQSRLTPPTMPPPPTTQGAPRTSSFTPTTLTNGTSHSPTALNGAPSPPNGFSNGPSSSSSSSLANQQLPPACGARQLSKLKRFLTTLQQFGNDISPEIGERVRTLVLGLVNSTLTIEEFHSKLQEATNFPLRPFVIPFLKANLPLLQRELLHCARLAKQNPAQYLAQHEQLLLDASTTSPVDSSELLLDVNENGKRRTPDRTKENGFDREPLHSEHPSKRPCTISPGQRYSPNNGLSYQPNGLPHPTPPPPQHYRLDDMAIAHHYRDSYRHPSHRDLRDRNRPMGLHGTRQEEMIDHRLTDREWAEEWKHLDHLLNCIMDMVEKTRRSLTVLRRCQEADREELNYWIRRYSDAEDLKKGGGSSSSHSRQQSPVNPDPVALDAHREFLHRPASGYVPEEIWKKAEEAVNEVKRQAMTELQKAVSEAERKAHDMITTERAKMERTVAEAKRQAAEDALAVINQQEDSSESCWNCGRKASETCSGCNTARYCGSFCQHKDWEKHHHICGQTLQAQQQGDTPAVSSSVTPNSGAGSPMDTPPAATPRSTTPGTPSTIETTPR
notes: also called A-E; AE
binding result (p300 [3]): binds

B6: Flag-AE (Flag-tagged AML1-ETO) (other)
chain: B5 chain
notes: Expressed in 293T cells with BosNeo-p300; anti-Flag IP; not shown: Flag tag added at the 5' end of the construct (N-terminus)
binding result (p300 [1]): binds

Second part, the binder after the results:

binding result (p300 [1]): no binding
B1: Flag-ETO-ΔNHR1 (other, human, UniProt Q06455 1-604, looked up)
chain: MISVKRNTWRALSLVIGDCRKKGNFEYCQDRTEKHSTMPDSPVDVKTQSRLTPPTMPPPPTTQGAPRTSSFTPTTLTNGTSHSPTALNGAPSPPNGLPHPTPPPPQHYRLDDMAIAHHYRDSYRHPSHRDLRDRNRPMGLHGTRQEEMIDHRLTDREWAEEWKHLDHLLNCIMDMVEKTRRSLTVLRRCQEADREELNYWIRRYSDAEDLKKGGGSSSSHSRQQSPVNPDPVALDAHREFLHRPASGYVPEEIWKKAEEAVNEVKRQAMTELQKAVSEAERKAHDMITTERAKMERTVAEAKRQAAEDALAVINQQEDSSESCWNCGRKASETCSGCNTARYCGSFCQHKDWEKHHHICGQTLQAQQQGDTPAVSSSVTPNSGAGSPMDTPPAATPRSTTPGTPSTIETTPR
notes: not shown: Flag tag

binding result (p300 [1]): no binding
B2: Flag-AE-ΔNHR1 (aa245-436) (other)
chain: MRIPVDASTSRRFTPPSTALSPGKMSEALPLGAPDAGAALAGKLRSGDRSMVEVLADHPGELVRTDSPNFLCSVLPTHWRCNKTLPIAFKVVALGDVPDGTLVTVMAGNDENYSAELRNATAAMKNQVARFNDLRFVGRSGRGKSFTLTITVFTNPPQVATYHRAIKITVDGPREPRNRTEKHSTMPDSPVDVKTQSRLTPPTMPPPPTTQGAPRTSSFTPTTLTNGTSHSPTALNGAPSPPNGFSHRDLRDRNRPMGLHGTRQEEMIDHRLTDREWAEEWKHLDHLLNCIMDMVEKTRRSLTVLRRCQEADREELNYWIRRYSDAEDLKKGGGSSSSHSRQQSPVNPDPVALDAHREFLHRPASGYVPEEIWKKAEEAVNEVKRQAMTELQKAVSEAERKAHDMITTERAKMERTVAEAKRQAAEDALAVINQQEDSSESCWNCGRKASETCSGCNTARYCGSFCQHKDWEKHHHICGQTLQAQQQGDTPAVSSSVTPNSGAGSPMDTPPAATPRSTTPGTPSTIETTPR
notes: also called AML1-ETO ΔNHR1; not shown: Flag tag at the N-terminus
